# The RNAGym collection of RNA variant scans (doi:10.7554/elife.80360)
# B1: HDV Ribozyme (parent)
# chain: GGCCGGCAUGGUCCCAGCCUCCUCGCUGGCGCCGGCUGGGCAACAUUCCGAGGGGACCGUCCCCUCGGUAAUGGCGAAUGGGACCCA
# Variants of: B1
# Test: self-cleavage, relative activity (ratio to wild type); higher = more cleavage; co-transcriptional
row,Variant,self-cleavage
1,U27G C33G,0.104
2,U27A G55C,0.864
3,U27G G29U,0.739
4,U27G G29C,0.733
5,U27G A43U,0.415
6,G28C C75G,0.113
7,G28A C84A,0.151
8,G28C C85G,0.111
9,G28C C85U,0
10,U27G G67C,0.653
11,U27G G52U,0.872
12,U27G G52A,1.02
13,G28A G50A,0.0906
14,G28A G50U,0.132
15,G28A G39U,0.0692
16,U27A G76C,0.943
17,U27C A77G,0.798
18,U27G A45G,0.712
19,G28C C32U,0.19
20,U27G C30U,0.554
21,U27G C30G,0.277
22,G28A C41G,0.151
23,U27G C49U,0.957
24,G28C C84A,0.135

row,Variant,self-cleavage
1,G28C C84G,0.0332
2,G28A G82C,0.0959
3,U27C A45U,0.532
4,U27A G74C,0
5,U27C C49U,0.617
6,G28C C66A,0.122
7,G28C C66U,0
8,U27G C63G,0.532
9,U27C C36A,0.142
10,U27G G53C,1.01
11,U27G G53A,0.923
12,U27G G55A,0.806
13,U27C A87G,0.497
14,G28C C36U,0.145
15,U27G G68C,0.87
16,U27C G38C,0.123
17,G28A A77C,0.119
18,U27G A70U,0.519
19,G28A C62U,0.134
20,U27C G50U,0.628
21,U27C G50A,0.733
22,U27C G68U,0.642
23,U27C G31A,0.251
24,U27C G31U,0.161

row,Variant,self-cleavage
1,U27C G80A,0.237
2,U27C G35A,0.389
3,U27A U60G,0.59
4,G28C C30U,0.0791
5,G28A G68U,0.0733
6,U27C G52C,0.764
7,G28A C66G,0.138
8,U27C U37C,0.856
9,U27C U37G,0.0923
10,G28C A78U,0.0811
11,U27C C64G,0.652
12,U27G U46G,0.462
13,G28A C44A,0.104
14,G28A C44G,0
15,G28A C33G,0.149
16,G28A C33U,0.0234
17,G28A A70C,0.0554
18,U27C A51U,0.804
19,U27G,0.848
20,U27C,0.8
21,G28A U37G,0
22,U27C C32U,0.115
23,U27C C32G,0.217
24,U27G G34C,0.0692

row,Variant,self-cleavage
1,U27G G34A,0.415
2,U27A G67U,0.799
3,U27G C61G,0.86
4,U27G C61A,0.759
5,U27A U79A,0.612
6,U27A U79G,0.831
7,G28A G80A,0.188
8,G28A G80C,0.0396
9,U27A G80U,0.231
10,G28A G40C,0.0702
11,G28A G40U,0.0256
12,G28A A87G,0.0492
13,G28A C58G,0.0369
14,U27C G40A,0.657
15,U27C G40C,0.415
16,G28C C62A,0.0346
17,G28C C62G,0.0536
18,G28A G74C,0.0845
19,G28A G74U,0.0432
20,U27A G81A,0.914
21,U27G G73C,0.0978
22,G28A C30A,0.149
23,G28A C30U,0.113
24,U27G U60G,0.978

row,Variant,self-cleavage
1,G28A C32U,0.0845
2,G28C C58G,0.0475
3,G28C C58A,0.166
4,U27C C61A,0.898
5,U27C C61U,0.978
6,G28A U79A,0
7,U27C U69A,0.317
8,G28A A43C,0.108
9,U27G G81U,0.643
10,U27G C41A,0.969
11,U27G C41G,0.802
12,G28A U46G,0.0665
13,U27A G54C,0.707
14,U27C G74A,0.193
15,G28C C64G,0.0791
16,U27C C75G,0
17,U27G A77G,0.723
18,U27C A42G,0
19,G28A G53U,0.0615
20,U27A G73U,0.261
21,U27C A70C,0.604
22,G28C A56C,0
23,U27C U72A,0.396
24,U27C U72G,0.612

row,Variant,self-cleavage
1,U27G C58U,0.906
2,G28A C48A,0.0978
3,G28A C48G,0
4,U27C U46A,0.529
5,U27G G39U,0.222
6,U27G C66G,0.629
7,G28A C75A,0.121
8,G28C C33G,0.0519
9,U27G G50U,0.88
10,U27G G50C,0.6
11,G28A A45C,0.0744
12,G28A C85U,0.106
13,U27G A51U,0.677
14,U27G U69A,0.959
15,G28A G38A,0.0647
16,U27A G82C,0.322
17,G28A G59A,0.0573
18,U27G C75G,0.119
19,U27G C64U,0.72
20,G28C A71C,0.0475
21,U27C G73C,0.332
22,U27G G74U,0.151
23,G28C A77G,0.119
24,U27G U47C,0.383

row,Variant,self-cleavage
1,G28A G76C,0.156
2,G28A U72A,0.119
3,G28A U72C,0.101
4,U27G U37G,0.391
5,U27G U37A,0.119
6,U27C A78C,0.0594
7,G28A C86U,0.0369
8,G28C A51U,0.156
9,U27G U72A,0.361
10,U27C G39C,0.166
11,U27A G50C,0.656
12,G28A C49G,0
13,U27C G81A,0.374
14,U27C G81U,0.475
15,U27C C33A,0
16,U27C C86G,1.2
17,U27G A42U,0.229
18,U27G A42C,0.185
19,G28C A45U,0.142
20,G28C C41A,0.0573
21,U27G A56G,1.06
22,G28C C48G,0.138
23,G28A G67A,0.0936
